From paper PMC2738593 (Nature methods, 2009)
Read-outs that look alike come from different tables or passages of the source.

How the values were obtained:
crystal structure [1] = target: the molecule itself; assay: crystal structure
crystal structure [2] = target: the molecule itself; assay: crystal structure; remark: listed apart in the source

Protein	stoichiometry N (crystal structure [1])	stoichiometry N (crystal structure [2])
cysteine-less HCN2I fragment (carboxyl-terminal region of mouse HCN2, C-linker and CNBD, residues 443-640) (domain or fragment, UniProt O88703 443-640, looked up) DSSRRQYQEKYKQVEQYMSFHKLPADFRQKIHDYYEHRYQGKMFDEDSILGELNGPLREEIVNFNNRKLVASMPLFANADPNFVTAMLTKLKFEVFQPGDYIIREGTIGKKMYFIQHGVVSVLTKGNKEMKLSDGSYFGEISLLTRGRRTASVRADTYSRLYSLSVDNFNEVLEEYPMMRRAFETVAIDRLDRIGKKN	4	–
wild-type mouse HCN2I construct (carboxyl-terminal fragment of HCN2, C-linker and CNBD, residues 443-640) (domain or fragment, UniProt O88703 443-640, looked up) DSSRRQYQEKYKQVEQYMSFHKLPADFRQKIHDYYEHRYQGKMFDEDSILGELNGPLREEIVNFNCRKLVASMPLFANADPNFVTAMLTKLKFEVFQPGDYIIREGTIGKKMYFIQHGVVSVLTKGNKEMKLSDGSYFGEICLLTRGRRTASVRADTYCRLYSLSVDNFNEVLEEYPMMRRAFETVAIDRLDRIGKKN	–	4
